Experimental data taken from patent EP1891228B1 (Janssen Pharmaceutica NV, dated 2016).

Target: HDAC1-flag (Homo sapiens (Human), UniProt Q13547 1-482)
Assay: cell-based or functional assay

Chain of HDAC1-flag (Q13547 whole entry, form in doubt): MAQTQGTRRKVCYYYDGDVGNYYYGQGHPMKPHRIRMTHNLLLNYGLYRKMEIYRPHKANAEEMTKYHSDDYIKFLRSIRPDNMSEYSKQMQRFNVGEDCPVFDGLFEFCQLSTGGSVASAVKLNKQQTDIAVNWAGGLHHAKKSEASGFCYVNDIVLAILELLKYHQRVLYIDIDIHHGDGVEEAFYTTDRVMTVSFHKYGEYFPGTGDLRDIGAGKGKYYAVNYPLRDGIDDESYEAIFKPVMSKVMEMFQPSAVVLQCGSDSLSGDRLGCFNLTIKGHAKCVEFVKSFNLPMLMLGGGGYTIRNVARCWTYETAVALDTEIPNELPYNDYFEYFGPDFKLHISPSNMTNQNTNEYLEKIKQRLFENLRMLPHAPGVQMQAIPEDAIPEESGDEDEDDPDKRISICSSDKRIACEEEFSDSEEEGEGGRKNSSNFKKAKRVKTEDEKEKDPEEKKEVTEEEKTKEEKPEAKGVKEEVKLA

B1: V5-APPL (full length APPL) (other, not shown: small tags and cut ends)
chain: MPGIDKLPIEETLEDSPQTRSLLGVFEEDATAISNYMNQLYQAMHRIYDAQNELSAATHLTSKLLKEYEKQRFPLGGDDEVMSSTLQQFSKVIDELSSCHAVLSTQLADAMMFPITQFKERDLKEILTLKEVFQIASNDHDAAINRYSRLSKKRENDKVKYEVTEDVYTSRKKQHQTMMHYFCALNTLQYKKKIALLEPLLGYMQAQISFFKMGSENLNEQLEEFLANIGTSVQNVRREMDSDIETMQQTIEDLEVASDPLYVPDPDPTKFPVNRNLTRKAGYLNARNKTGLVSSTWDRQFYFTQGGNLMSQARGDVAGGLAMDIDNCSVMAVDCEDRRYCFQITSFDGKKSSILQAESKKDHEEWICTINNISKQIYLSENPEETAARVNQSALEAVTPSPSFQQRHESLRPAAGQSRPPTARTSSSGSLGSESTNLAALSLDSLVAPDTPIQFDIISPVCEDQPGQAKAFGQGGRRTNPFGESGGSTKSETEDSILHQLFIVRFLGSMEVKSDDHPDVVYETMRQILAARAIHNIFRMTESHLLVTCDCLKLIDPQTQVTRLTFPLPCVVLYATHQENKRLFGFVLRTSSGRSESNLSSVCYIFESNNEGEKICDSVGLAKQIALHAELDRRASEKQKEIERVKEKQQKELNKQKQIEKDLEEQSRLIAASSRPNQASSEGQFVVLSSSQSEESDLGEGGKKRESEA
- HDAC1 activity: release of acetic acid from a [3H]acetyl-labeled Histone H4 peptide by immunoprecipitated HDAC1: ~4 fold
